Assays:
Test in all cases: BLI; Octet Red; GST-WASP variants loaded on anti-GST sensors (10 μg/ml), dipped into a dilution range of Cdc42·GMPPNP; 50 mM Tris-HCl pH 7.5, 150 mM NaCl, 1 mM MgCl2, 0.02% Tween 20, 0.1% BSA, 0.05% sodium azide, 25 °C; GST-alone sensors subtracted
[1] = molecular target: GST-WASP(201–321) K230A/K231A/K232A (UniProt P42768)
GST-WASP(201–321) K230A = GST-WASP(201–321) K230A (UniProt P42768)
[2] = molecular target: GST-WASP(201–321) K226A/R227A (UniProt P42768)
[3] = molecular target: GST-WASP(201–321) wild type (UniProt P42768)
GST-WASP(201–321) K226A = GST-WASP(201–321) K226A (UniProt P42768)
[4] = molecular target: GST-WASP(201–321) K231A/K232A (UniProt P42768)
GST-WASP(201–321) K231A = GST-WASP(201–321) K231A (UniProt P42768)
GST-WASP(201–321) K232A = GST-WASP(201–321) K232A (UniProt P42768)
[5] = molecular target: GST-WASP(201–321) K225A/R227A (UniProt P42768)
[6] = molecular target: GST-WASP(201–321) K225A/K226A/R227A/K230A/K231A/K232A (UniProt P42768)
[7] = molecular target: GST-WASP(201–321) K230A/K231A (UniProt P42768)

**Q.** For “Cdc42 Δ7 Q61L (from UniProt P60953 1-191) (natural protein)”, which Kd [1] is on record?
**A.** The Kd was 307 nM.

**Q.** What about the koff [1] of the same substance?
**A.** Its koff is 0.0914 s⁻¹.

**Q.** And the kon [1]?
**A.** Its kon is 300000 M⁻¹ s⁻¹.

**Q.** What about the Kd (GST-WASP(201–321) K230A) of the same substance?
**A.** The Kd was 106 nM.

**Q.** And the koff (GST-WASP(201–321) K230A)?
**A.** The koff was 0.0498 s⁻¹.

**Q.** And the kon (GST-WASP(201–321) K230A)?
**A.** Its kon is 477000 M⁻¹ s⁻¹.

**Q.** And the Kd [2]?
**A.** The Kd was 74.8 nM.

**Q.** And the koff [2]?
**A.** Its koff is 0.0372 s⁻¹.

**Q.** What about the kon [2] of the same substance?
**A.** Its kon is 497000 M⁻¹ s⁻¹.

**Q.** And the Kd [3]?
**A.** The Kd was 63.7 nM.

**Q.** And the koff [3]?
**A.** Its koff is 0.0417 s⁻¹.

**Q.** What about the kon [3] of the same substance?
**A.** Its kon is 691000 M⁻¹ s⁻¹.

**Q.** What about the Kd (GST-WASP(201–321) K226A) of the same substance?
**A.** Its Kd is 54.4 nM.

**Q.** What about the koff (GST-WASP(201–321) K226A) of the same substance?
**A.** The koff was 0.0338 s⁻¹.

**Q.** And the kon (GST-WASP(201–321) K226A)?
**A.** The kon was 676000 M⁻¹ s⁻¹.

**Q.** And the Kd [4]?
**A.** Its Kd is 178 nM.

**Q.** And the koff [4]?
**A.** Its koff is 0.0639 s⁻¹.

**Q.** And the kon [4]?
**A.** Its kon is 368000 M⁻¹ s⁻¹.

**Q.** What about the Kd (GST-WASP(201–321) K231A) of the same substance?
**A.** Its Kd is 89.6 nM.

**Q.** What about the koff (GST-WASP(201–321) K231A) of the same substance?
**A.** Its koff is 0.0438 s⁻¹.

**Q.** What about the kon (GST-WASP(201–321) K231A) of the same substance?
**A.** The kon was 509000 M⁻¹ s⁻¹.

**Q.** What about the Kd (GST-WASP(201–321) K232A) of the same substance?
**A.** Its Kd is 134 nM.

**Q.** And the koff (GST-WASP(201–321) K232A)?
**A.** The koff was 0.0546 s⁻¹.

**Q.** And the kon (GST-WASP(201–321) K232A)?
**A.** The kon was 407000 M⁻¹ s⁻¹.

**Q.** What about the Kd [5] of the same substance?
**A.** Its Kd is 81.5 nM.

**Q.** And the koff [5]?
**A.** Its koff is 0.0371 s⁻¹.

**Q.** What about the kon [5] of the same substance?
**A.** Its kon is 456000 M⁻¹ s⁻¹.

**Q.** What about the Kd [6] of the same substance?
**A.** Its Kd is 734 nM.

**Q.** What about the koff [6] of the same substance?
**A.** The koff was 0.145 s⁻¹.

**Q.** What about the kon [6] of the same substance?
**A.** Its kon is 198000 M⁻¹ s⁻¹.

**Q.** And the Kd [7]?
**A.** Its Kd is 162 nM.

**Q.** What about the koff [7] of the same substance?
**A.** The koff was 0.0684 s⁻¹.

**Q.** And the kon [7]?
**A.** Its kon is 422000 M⁻¹ s⁻¹.
